Laboratory results published in PMC4856084, “The SEB-1 Transcription Factor Binds to the STRE Motif in Neurospora crassa and Regulates a Variety of Cellular Processes Including the Stress Response and Reserve Carbohydrate Metabolism”.

Biological target: GST-SEB-1 (Neurospora crassa, UniProt Q7SH58 1-575)
Test: competition
Conditions: protein: recombinant; tags: N-terminal GST (pGEX-4T1); blunt

B1: STRE1 oligonucleotide (18 bp) (dsDNA)
DNA 1: GGGATCCCCCTTGAATAC
DNA 2: GTATTCAAGGGGGATCCC
  binding result: binds
